Assay: yeast display, Sf9 membrane polyspecificity reagent, FACS + sequencing; frameworks hold sequencing errors
In short: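 Galactose induction of a Saccharomyces cerevisiae BJ5465 synthetic nanobody display library ran 36–48 hours. The cells were then stained for 1 hour at 4 °C with 10% biotinylated, detergent-solubilized Sf9 membrane reagent, pulled down on streptavidin microbeads and FACS-sorted into low and high (top ~1%) gates on expression and reagent-binding fluorescence. Labels for polyreactivity follow the gate of origin.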

Sequence | polyreactivity (PSR sort gate)
QVQLVESGGGLVQAGGSLRLSCAASGITIVRNAMGWYRQAPGKERELVAAISSGGSTYYADSVKGRFTISRDNAKISVYLQMNSLKPEDTAVYYCAAVPEYYEYSPYDYWGQGTQVTVSS | low polyreactivity
QVQLVESGGGLVQAGGSLRLSCAASGITIVRYAMGWSRQAPGKERELVAAINRSGGSTYYADSVKGRFTISRDNAKNTVYLQMNSLKPEDTAVYYCAARLYGKYDPPGYYYWGQGTQVTVSS | high polyreactivity
QVQLVESGGGLVQAGGSLRLSCAASGITIYEYAMGWYRQAPGKERELVAAITSGGTTNYADSVKGRFTISRDNAKNTVYLQMNSLKPEDTAVYYCAKDGGEGYDYWGQGTQVTVSS | low polyreactivity
QVQLVESGGGLVQAGGSLRLSCAASGITIYGYAMGWYRQAPGKERELVAAISFRSGSTYYADSVKGRFTISRDNAKNTVYLQMNSLKPEDTAVYYCATDRYYRDDYWGQGTQVTVSS | low polyreactivity
QVQLVESGGGLVQAGGSLRLSCAASGITIYRNAMGWYRQAPGKEMELVAAITRNGGRTYYADSVKGRFTISRDNAKNTVYLQMNSLKPEDTAVDYCAADSGTRNLASYRYYYWGQGTQVTVSS | high polyreactivity
QVQLVESGGGLVQAGGSLRLSCAASGITIYWYAMGWYRQAPGKERELVAAITRSVGSTYYADSVKGRFTISRDNAKNTVYLQMNSLKPEDTAVYYCAADFYYYGFDYWGQGTQVTVSS | low polyreactivity
QVQLVESGGGLVQAGGSLRLSCAASGITLFHYVMGWYRQAPGKERELVADITWRGGNTFYADSVKGRFTISRDNAKNTVYLQMNSLKPEDTAVYYCAVRQAYRTRDYDYWGQGTQVTVSS | high polyreactivity
QVQLVESGGGLVQAGGSLRLSCAASGITLGAYAMGWYRQAPGKERELVARIRIGGSTYYADSVKGRFTISRDNAKNTVYLQMNSLKPEDTAVYYCNRDFWYGVATGREFYLYDYWGQGTQVTVSS | low polyreactivity
QVQLVESGGGLVQAGGSLRLSCAASGITLGYSAMGGYRQAPGKEREFVAGITTSGGTTYYADSVKGRFTISRDNAKNTVYLQMNSLKPEDTAVYYCAVYGGVKRGSFYYWGQGTQVTVSS | low polyreactivity
QVQLVESGGGLVQAGGSLRLSCAASGITLKYYAIGWYIQAPGKERELVAAITRSGVGTYYADSVKGRFTISRDNAKNTVYLQMNSLKPEDTAVYYCAAASYQSRYWNYYWGQGTQVTVSS | high polyreactivity
QVQLVESGGGLVQAGGSLRLSCAASGITLNGYVMGWYRQAPGKEREFVAVISSRGGSTYYADSVKGRFTISRDNAKNTVYLQMNSLKPEDTAVYYCAARWGYSRRGYRGYDYWGQGTQVTVSS | high polyreactivity
QVQLVESGGGLVQAGGSLRLSCAASGITLNRNAMGWYRQAPGKERELVARISRRGGTTYYADSVKGRFSISRDNAKNTVYLQMNSLKPEDTAVYYCNAGPYGGNPFDYWGQGTQVTVSS | high polyreactivity
QVQLVESGGGLVQAGGSLRLSCAASGITLSIYAMGWYRQAPGKERELVAAIDWSDGSTYYADSVKGRFTISRDNAKNTVYLQMNSLKPEDTAVYYCAAEYHWSYWWPTDDYWGQGTQVTVSS | high polyreactivity
QVQLVESGGGLVQAGGSLRLSCAASGITLSVYAMGWYRQAPRKERELVASISSGGTSTYYADSVKGRFTISRDNAKNTVYLLMISLKPEDTAVYYCAAYSYYTGDQYSYDYWGQGTQVTVSS | low polyreactivity
QVQLVESGGGLVQAGGSLRLSCAASGITLTVYTMGWYRQAPGKERKLVAAITYGGTSTYYADSVKGRFTISRDNAKNTVYLQMNSLKPEDTAVYYCNVAFGYSYRGRDYWGQGTQVTVSS | high polyreactivity
QVQLVESGGGLVQAGGSLRLSCAASGITLVFNAMGWYRQAPGKERELVAAITSGGITNYADSVKGRFTISRDNAKNTVYLQMNSLKPEDTAVYYCATDYGYFHYPWCPLWGYEYWGQGTQVTVSS | low polyreactivity

Sequence | polyreactivity (PSR sort gate)
QVQLVESGGGLVQAGGSLRLSCAASGITLVRYAMGWYRQAPGKERELVAAISSSGGSTYYADSVKGRFTISRDTAKNTVYLQMNSLKPEDTAVYYCNAYVHSRRVEFNYWGQGTQVTVSS | high polyreactivity
QVQLVESGGGLVQAGGSLRLSCAASGITLWQSAKGWYRQAPGKERELVAGITDTGDSTYYADSVKGRFTISRDNAKNTVYLQMNSLKPEDTAVYYCAVPRSALLRAPYELYSWGQGTQVTVSS | low polyreactivity
QVQLVESGGGLVQAGGSLRLSCAASGITLYKYTMGWYRQAPGKERELVAAISGGGSTTYADSVKGRFTISRDNAKNTVYLQMNSLKPEDTAVYYCNVPGGKPSYYEEYGYWGQGTQVTVSS | low polyreactivity
QVQLVESGGGLVQAGGSLRLSCAASGITLYRYVMGWYRQAPGKERELVADISGRGTSTYYADSVKGRFTISRDNAKNTVYLQMNSLKPEDTAVYYSNSEYTKTGALVIPYTYYYAEDYWGQGTQVTVSS | low polyreactivity
QVQLVESGGGLVQAGGSLRLSCAASGITLYSYAMGWYRPAPGKERELVAAISWDGGGTYYADSVKGRFTISRDNAKNTVYLQMNSLKPEDTAVYYCAADTQYTDGDSWGQGTQVTVSS | high polyreactivity
QVQLVESGGGLVQAGGSLRLSCAASGITSDFNAMGWYRQAPGKERELVAITWNGGSTYYADSVKGRFTISRDNAKNTVYLQMNSLKPEDSAVYYCAARYRRYNRIYDYWGQGTQVTVSS | high polyreactivity
QVQLVESGGGLVQAGGSLRLSCAASGITSRLYAMGWYRQAPGKERELVAAINSIDGSTNYADSVKGRFTISRDNAKNTVYLQMNSLKPEDTAVYYCNKRYGYTGFSPRYDYWGQGTQVTVSS | low polyreactivity
QVQLVESGGGLVQAGGSLRLSCAASGITSRPNAMGWYRQAPGKERELVAAISGSGGRTYYADSVKGRFTISRDNAKNTVYLQMNSLKPEDTAVYYCNAVGGGRWYEYWGLGTQVTVSS | high polyreactivity
QVQLVESGGGLVQAGGSLRLSCAASGITYRWKAMGWYRQAPGKERELVAAITTRGGGTYYAVSVKGRFTISRDNAKNTVYLQMISLKPEDTAVYYCAAKKSRYPYNYWGQGTQVTVSS | high polyreactivity
QVQLVESGGGLVQAGGSLRLSCAASGITYRYAMGCYRQAPGKERELVAAITSSGASTYYADSVKGRFTISRDNAKNTVYLQMNSLKPEDTAVYYCATPLRKVYGGYEYWGQGTQVTVSS | low polyreactivity
QVQLVESGGGLVQAGGSLRLSCAASGITYRYNAMGWYRQAPGKEREMVAAISTSGGNTYYADSVKGRFTISRDNAKYTVYLQLNSLKPEDTAVYYCAVDGEYWYDYDGDYWGQGTQVTVSS | low polyreactivity
QVQLVESGGGLVQAGGSLRLSCAASGIVRQNPMGWYRQAPGKERELVACISQSGGSTYYADSVKGRFTISRDNAKNTVYLQMNSLKPEDTAVYYCAVVSIWGYDYWGEGTQVTVSS | low polyreactivity
QVQLVESGGGLVQAGGSLRLSCAASGIYGFYAMGWYRQPPRKQRELVAAISSVTSTYYADSVKGRFTISRDNAKNTVYLQMNSLKPEDTAVYYCNAYLYSGGLSYDYWGQGTQVTVSS | low polyreactivity
QVQLVESGGGLVQAGGSLRLSCAASGIYYNAMGWYRQAPGKERELVAAITTGDRTNYADSVKGRFTISRDNAKNTVYLQMYSLIPEDTAVYYCKAVVERLSSTARDFAYDYWGQGTQVNVSS | low polyreactivity
QVQLVESGGGLVQAGGSLRLSCAASGLIFARNAMGWYRQAPGKERELVAAITRRGTSTYYADSVKGRFTISRDNAKNTVYLQMNSLKPEDTAVYYCAARGGGGQRYDYWGQGTQVTVSS | high polyreactivity
QVQLVESGGGLVQAGGSLRLSCAASGLIFARNAMGWYRQAPGKETELVAAISKRGGSTYYADSVKGRFTISRDNAKNTVYLQMNSLKPDDTAVYYCNARYFRWWDMGYWGQGTQVNVSS | high polyreactivity

From the nanobody polyreactivity screen of Harvey et al. (2022)
